This note sets out measurements from patent US20240141042A1 (INNATE PHARMA, published 2024).

One assay deals with T1, human FcRn (Example 10) (human, UniProt P55899 24-297; P61769 21-119, limits assumed).
T1 construct: Construct not described; Beta-2-microglobulin is not mentioned; also called recombinant FcRn proteins
The experiment in a line: SPR, FcRn immobilized on CM5, Steady State.

Assay [1] has as its target T2, Human NKp46 recombinant proteins (human, UniProt O76036 22-258).
T2 construct: also called recombinant human NKp46 proteins
The experiment in a line: SPR, bispecific captured on Protein-A chip, human NKp46 injected, 1:1 kinetic model. As to the method: SPR measurements were performed on a Biacore T100 apparatus (Biacore GE Healthcare) at 25° C. In all Biacore experiments HBS-EP+(Biacore GE Healthcare) and NaOH 10 mM served as running buffer and regeneration buffer respectively. Sensorgrams were analyzed with Biacore T100 Evaluation software. Protein-A was purchase from (GE Healthcare). Human NKp46 recombinant proteins were cloned, produced and purified at Innate Pharma.
Protein-A proteins were immobilized covalently to carboxyl groups in the dextran layer on a Sensor Chip CM5. The chip surface was activated with EDC/NHS (N-ethyl-N′-(3-dimethylaminopropyl) carbodiimidehydrochloride and N-hydroxysuccinimide (Biacore GE Healthcare)). Protein-A was diluted to 10 μg/ml in coupling buffer (10 mM acetate, pH 5.6) and injected until the appropriate immobilization level was reached (i.e. 2000 RU). Deactivation of the remaining activated groups was performed using 100 mM ethanolamine pH 8 (Biacore GE Healthcare).
Monovalent affinity study was done following a regular Capture-Kinetic protocol recommended by the manufacturer (Biacore GE Healthcare kinetic wizard). Seven serial dilutions of human NKp46 recombinant proteins, ranging from 6.25 to 400 nM were sequentially injected over the captured Bi-Specific antibodies and allowed to dissociate for 10 min before regeneration. The entire sensorgram sets were fitted using the 1:1 kinetic binding model.

T1 sequence (P55899 24-297 limits assumed, form in doubt, chain 1 of 2): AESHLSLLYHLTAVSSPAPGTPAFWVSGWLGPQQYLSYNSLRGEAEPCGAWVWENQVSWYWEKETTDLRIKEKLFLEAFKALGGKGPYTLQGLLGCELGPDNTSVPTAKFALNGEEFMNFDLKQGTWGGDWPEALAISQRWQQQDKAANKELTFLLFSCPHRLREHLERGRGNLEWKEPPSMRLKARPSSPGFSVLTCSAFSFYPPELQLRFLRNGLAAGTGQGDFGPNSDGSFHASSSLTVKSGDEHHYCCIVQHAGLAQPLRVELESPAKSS
T1 sequence (P61769 21-119 limits assumed, form in doubt, chain 2 of 2): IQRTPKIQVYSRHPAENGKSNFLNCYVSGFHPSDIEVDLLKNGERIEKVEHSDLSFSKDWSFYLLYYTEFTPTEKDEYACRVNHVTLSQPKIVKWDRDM

B1: CD19-F11-NKp46-3 (bispecific antibody)
chain 1: DIQLTQSPASLAVSLGQRATISCKASQSVDYDGDSYLNWYQQIPGQPPKLLIYDASNLVSGIPPRFSGSGSGTDFTLNIHPVEKVDAATYHCQQSTEDPWTFGGGTKLEIKGGGGSGGGGSGGGGSQVQLQQSGAELVRPGSSVKISCKASGYAFSSYWMNWVKQRPGQGLEWIGQIWPGDGDTNYNGKFKGKATLTADESSSTAYMQLSSLASEDSAVYFCARRETTTVGRYYYAMDYWGQGTTVTVSSGGGSSAPELLGGPSVFLFPPKPKDTLMISRTPEVTCVVVDVSHEDPEVKFNWYVDGVEVHNAKTKPREEQYSSTYRVVSVLTVLHQDWLNGKEYKCKVSNKALPAPIEKTISKAKGQPREPQVYTLPPSREEMTKNQVSLTCLVKGFYPSDIAVEWESNGQPENNYKTTPPVLDSDGSFFLYSKLTVDKSRWQQGNVFSCSVMHEALHNHYTQKSLSLSPGGGGGSGGGGSGGGGSGQPREPQVYTLPPSREEMTKNQVSLTCLVKGFYPSDIAVEWESNGQPENNYKTTPPVLDSDGSFFLYSKLTVDKSRWQQGNVFSCSVMHEALHNHYTQKSLSLSPGSTGSEVQLQQSGPELVKPGASVKISCKTSGYTFTEYTMHWVKQSHGKSLEWIGGISPNIGGTSYNQKFKGKATLTVDKSSSTAYMELRSLTSEDSAVYYCARRGGSFDYWGQGTTLTVSSRTVAAPSVFIFPPSDEQLKSGTASVVCLLNNFYPREAKVQWKVDNALQSGNSQESVTEQDSKDSTYSLSSTLTLSKADYEKHKVYACEVTHQGLSSPVTKSFNRGEC
chain 2: DIVMTQSPATLSVTPGDRVSLSCRASQSISDYLHWYQQKSHESPRLLIKYASQSISGIPSRFSGSGSGSDFTLSINSVEPEDVGVYYCQNGHSFPLTFGAGTKLELKASTKGPSVFPLAPSSKSTSGGTAALGCLVKDYFPEPVTVSWNSGALTSGVHTFPAVLQSSGLYSLSSVVTVPSSSLGTQTYICNVNHKPSNTKVDKRVEPKSCDKTH
notes: Heterodimer; also called CD19-F11A-NKp46-3
In turn, B1 yielded a Kd with human FcRn (Example 10) of 596 nM. For the same molecule, in assay [1], the Kd turned out to be 30 nM, the off-rate (koff) stood at 0.0104 s⁻¹ and the kon was determined as 339000 M⁻¹ s⁻¹.
